Assay results reported in US6521594 (dated 2003).
Where two headings read alike, the source gives them in different places. Starred links: 1 amine or outer side, 2 acyl side, 3 side chain; linkers in the order of their positions; H or OH if unused. Positions of bridges follow the written chain, without caps; N, C: chain ends. Non-standard residues stand in square brackets, D forms with d. Primed or numbered codes have the meaning given here. No end group written: not given here. *: point of attachment. Tyr(OMe)″ = O-methyl-tyrosine (Y-OMe, TyrOMe, O-Me-Tyr), COc1ccc(C[C@H](N[*:1])C(=O)[*:2])cc1; Tyr(Me) = O-methyl-tyrosine (Y-OMe, O-Me-Tyr), COc1ccc(C[C@H](N[*:1])C(=O)[*:2])cc1; Tyr(nBu) = O-n-butyl-tyrosine, CCCCOc1ccc(C[C@H](N[*:1])C(=O)[*:2])cc1; Cys(β,β-pentamethylene) = O=C([C@@H](N[*:1])C1(S[*:3])CCCCC1)[*:2]; Y‑OMe = O-methyl-tyrosine, COc1ccc(C[C@H](N[*:1])C(=O)[*:2])cc1; Cyclohexylacetyl(1-SH) = O=C(CC1(S)CCCCC1)*; Phe(4-I) = N[C@@H](Cc1ccc(I)cc1)C(=O)O; hPhe = N[C@@H](CCc1ccccc1)C(=O)O; dPen = CC(C)(S)[C@@H](N)C(=O)O; Pen = CC(C)(S)[C@H](N)C(=O)O; code O = not defined here; Tmc = not defined here

Key:
Assay in all cases: ELISA
αvβ5 [1] = target: αvβ5
αvβ5 [2] = target: αvβ5; remark: listed apart in the source
Fibronectin receptor [3] = target: T1, Fibronectin receptor (human, UniProt P08648 42-1049; P05556 21-798)
T1 sequence (P08648 42-1049, chain 1 of 2): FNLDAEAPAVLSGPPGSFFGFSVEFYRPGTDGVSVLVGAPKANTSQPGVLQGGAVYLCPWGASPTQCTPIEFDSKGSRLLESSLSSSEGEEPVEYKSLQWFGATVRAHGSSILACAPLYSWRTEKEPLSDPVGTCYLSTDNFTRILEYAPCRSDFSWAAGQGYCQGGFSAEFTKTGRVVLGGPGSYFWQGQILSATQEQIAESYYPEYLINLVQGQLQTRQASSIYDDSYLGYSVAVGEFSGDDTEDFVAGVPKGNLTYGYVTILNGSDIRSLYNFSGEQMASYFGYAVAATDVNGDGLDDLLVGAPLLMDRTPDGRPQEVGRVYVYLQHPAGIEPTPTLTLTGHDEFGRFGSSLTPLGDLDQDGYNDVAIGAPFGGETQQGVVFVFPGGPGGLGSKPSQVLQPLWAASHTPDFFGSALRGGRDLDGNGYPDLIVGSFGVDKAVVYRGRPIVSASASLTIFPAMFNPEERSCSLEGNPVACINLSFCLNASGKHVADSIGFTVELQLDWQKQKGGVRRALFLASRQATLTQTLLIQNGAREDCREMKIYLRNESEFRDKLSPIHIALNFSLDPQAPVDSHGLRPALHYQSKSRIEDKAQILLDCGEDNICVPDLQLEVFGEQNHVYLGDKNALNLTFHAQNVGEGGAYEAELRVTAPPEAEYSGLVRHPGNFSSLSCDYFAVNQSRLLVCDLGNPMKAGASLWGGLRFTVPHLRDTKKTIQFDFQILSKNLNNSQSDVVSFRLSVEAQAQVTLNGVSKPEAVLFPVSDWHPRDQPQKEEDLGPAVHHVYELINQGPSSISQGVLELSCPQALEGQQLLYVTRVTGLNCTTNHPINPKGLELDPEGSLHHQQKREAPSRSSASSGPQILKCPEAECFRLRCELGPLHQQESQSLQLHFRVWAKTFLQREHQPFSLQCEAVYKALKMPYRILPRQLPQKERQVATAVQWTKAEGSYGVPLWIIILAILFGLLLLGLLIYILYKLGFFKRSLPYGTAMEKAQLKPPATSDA
T1 sequence (P05556 21-798, chain 2 of 2): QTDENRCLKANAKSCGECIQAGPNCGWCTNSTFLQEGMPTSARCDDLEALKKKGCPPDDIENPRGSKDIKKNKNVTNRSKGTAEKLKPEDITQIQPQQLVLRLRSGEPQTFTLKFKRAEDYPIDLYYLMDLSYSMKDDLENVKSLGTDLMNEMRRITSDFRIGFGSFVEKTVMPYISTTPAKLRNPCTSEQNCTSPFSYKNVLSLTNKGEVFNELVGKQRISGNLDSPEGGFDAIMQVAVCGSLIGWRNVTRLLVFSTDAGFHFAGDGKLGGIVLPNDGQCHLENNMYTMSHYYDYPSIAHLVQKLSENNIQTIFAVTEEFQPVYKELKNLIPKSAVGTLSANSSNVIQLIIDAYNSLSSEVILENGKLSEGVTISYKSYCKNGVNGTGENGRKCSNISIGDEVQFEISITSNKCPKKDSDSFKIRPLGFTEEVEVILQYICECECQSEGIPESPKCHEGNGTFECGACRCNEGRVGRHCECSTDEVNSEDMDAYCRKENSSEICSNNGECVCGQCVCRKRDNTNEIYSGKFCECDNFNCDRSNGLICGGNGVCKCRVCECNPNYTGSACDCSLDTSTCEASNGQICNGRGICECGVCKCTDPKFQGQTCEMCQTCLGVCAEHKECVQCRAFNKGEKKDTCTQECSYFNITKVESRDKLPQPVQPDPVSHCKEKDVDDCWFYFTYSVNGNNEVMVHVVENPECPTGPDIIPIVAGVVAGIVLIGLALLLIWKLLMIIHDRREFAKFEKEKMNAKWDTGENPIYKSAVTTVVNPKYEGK

[4] = target: T2, Platelet glycoprotein IIb/IIIa (human, UniProt P08514 32-1039; P05106 27-788)
αvβ5 [5] = target: αvβ5; remark: listed apart in the source
αvβ5 [6] = target: αvβ5; remark: listed apart in the source
αvβ5 [7] = target: αvβ5; remark: listed apart in the source
[8] = target: T2, Platelet glycoprotein IIb/IIIa; remark: listed apart in the source
[9] = target: T2, Platelet glycoprotein IIb/IIIa; remark: listed apart in the source
Fibronectin receptor [10] = target: T1, Fibronectin receptor; remark: listed apart in the source
Fibronectin receptor [11] = target: T1, Fibronectin receptor; remark: listed apart in the source

Binder: R[dPen]GHRGDLRCR (disulfide 2-10) [R(D-Pen)GHRGDLRCR]
- IC50 (αvβ5 [1]): 10 µM

Binder: Ac-CNPRGD[Tyr(OMe)″]KC-NH2 (disulfide 1-9) [Ac-CNPRGD(Y-OMe)KC-NH2]
- IC50 (αvβ5 [2]): 5.82 µM

Binder: R[Cys(β,β-pentamethylene)]GHRGD[Phe(4-I)]RCR (disulfide 2-10; also: Pmc2 from Boc-D/L-Pmc) [R(Pmc)GHRGD(p-I-F)RCR]
- IC50 (Fibronectin receptor [3]): 4190 nM
- IC50 [4]: 10 nM
- IC50 (αvβ5 [5]): 4030 nM

Binder: G[dPen]GHRGDLRCA (disulfide 2-10) [G(D-Pen)GHRGDLRCA]
- IC50 (αvβ5 [1]): 5.27 µM

Binder: R[Cys(β,β-pentamethylene)]GHRGD[Tyr(Me)]RCR (disulfide 2-10; also: Pmc2 made from D,L-Pmc, configuration not given here) [R(Pmc)GHRGD(Y-OMe)RCR]
- IC50 (αvβ5 [5]): 1050 nM
- IC50 (αvβ5 [6]): 1050 nM
- IC50 (αvβ5 [7]): 1050 nM

Binder: R[Cys(β,β-pentamethylene)]GHRGD[hPhe]RCR (disulfide 2-10; also: Pmc2 from Boc-D/L-Pmc, configuration not given here) [R(Pmc)GHRGD(Hpa)RCR]
- IC50 (αvβ5 [5]): 4250 nM

Binder: Ac-CNPRGD[Y‑OMe][code O]C-NH2 (disulfide 1-9 (inferred); reading uncertain) [Ac-CNPRGD(Y-OMe)OC-NH2]
- IC50 [8]: 50 nM
- IC50 (αvβ5 [2]): 7.7 µM

Binder: [Cyclohexylacetyl(1-SH)]GHRGDLRCA (disulfide 1-9 (inferred)) [(Pmp)GHRGDLRCA]
- IC50 [9]: 20 nM

Binder: G[Pen]GHRGDLRCA (disulfide 2-10) [G(Pen)GHRGDLRCA]
- IC50 (αvβ5 [1]): 8.26 µM

Binder: R[Cys(β,β-pentamethylene)]GHRGDLRCR (disulfide 2-10 (inferred); also: D,L-Pmc mixture at 2) [R(Pmc)GHRGDLRCR]
- IC50 (αvβ5 [1]): 1.58 µM
- IC50 (αvβ5 [5]): 1580 nM

Binder: R[Cys(β,β-pentamethylene)]GHRGDFRCR (disulfide 2-10) [R(Pmc)GHRGDFRCR]
- IC50 [4]: 40 nM

Binder: R[Cys(β,β-pentamethylene)]GHRGD[Tyr(nBu)]RCR (disulfide 2-10; also: Pmc from Boc-D/L-Pmc, isomer not given here) [R(Pmc)GHRGD(O-n-butyl-Tyr)RCR]
- IC50 [4]: 30 nM

Binder: R[Pen]GHRGDLRCR (disulfide 2-10) [R(Pen)GHRGDLRCR]
- IC50 (αvβ5 [1]): 4.93 µM
- IC50 [9]: 40 nM

Binder: R[Cys(β,β-pentamethylene)]GHRGD[Tyr(Me)]RCR (disulfide 2-10; also: Pmc2 made from D,L-Pmc, configuration not given here) [R(Pmc)GHRGD(O-Me-Tyr)RCR]
- IC50 (Fibronectin receptor [3]): 980 nM
- IC50 (Fibronectin receptor [10]): 980 nM
- IC50 (Fibronectin receptor [11]): 980 nM

Binder: Ac-CNPRGD[Tyr(OMe)″]EC-NH2 (disulfide 1-9) [Ac-CNPRGD(Y-OMe)EC-NH2]
- IC50 (αvβ5 [2]): 9.47 µM

B1: R(Tmc)GHRGDLRCR (peptide)
peptide: R[Tmc]GHRGDLRCR
modifications: disulfide (positions not given here); reading uncertain; also: Tmc2 as D,L mixture of diastereomers, printed as R(Tmc)GHRGDLRCR
- IC50 [9]: 30 nM

Binder: CNPRGDXXC (N-terminal acetyl; O-Me-Tyr at 7; Cit at 8; C-terminal amide) [Ac-CNPRGD(Y-OMe)(Cit)C-NH2]
- IC50 (αvβ5 [2]): 3.46 µM
